Source: patent publication US20130064825A1 (Amgen, published 2013)

B2: 16F12, anti-PCSK9 huIgG4 (antibody, V domains shown)
VH: QVHLVESGGGVVQPGRSLRLSCAASGFTFNSFGMHWVRQAPGKGLEWVALIWSDGSDEYYADSVKGRFTISRDNSKNTLYLQMNSLRAEDTAVYYCARAIAALYYYYGMDVWGQGTTVTVSS
VL: QSVLTQPPSVSAAPGQKVTISCSGSSSNIGNNFVSWYQQLPGTAPKLLIYDYNKRPSGIPDRFSGSKSGTSATLGITGLQTGDEADYYCGTWDSSLSAYVFGTGTRVTVLQ
notes: also called 16F12.1
B3: mouse PCSK9, 8xHIS tagged (enzyme, UniProt Q80W65 35-694, looked up)
chain: QDEDGDYEELMLALPSQEDGLADEAAHVATATFRRCSKEAWRLPGTYIVVLMEETQRLQIEQTAHRLQTRAARRGYVIKVLHIFYDLFPGFLVKMSSDLLGLALKLPHVEYIEEDSFVFAQSIPWNLERIIPAWHQTEEDRSPDGSSQVEVYLLDTSIQGAHREIEGRVTITDFNSVPEEDGTRFHRQASKCDSHGTHLAGVVSGRDAGVAKGTSLHSLRVLNCQGKGTVSGTLIGLEFIRKSQLIQPSGPLVVLLPLAGGYSRILNAACRHLARTGVVLVAAAGNFRDDACLYSPASAPEVITVGATNAQDQPVTLGTLGTNFGRCVDLFAPGKDIIGASSDCSTCFMSQSGTSQAAAHVAGIVARMLSREPTLTLAELRQRLIHFSTKDVINMAWFPEDQQVLTPNLVATLPPSTHETGGQLLCRTVWSAHSGPTRTATATARCAPEEELLSCSSFSRSGRRRGDWIEAIGGQQVCKALNAFGGEGVYAVARCCLVPRANCSIHNTPAARAGLETHVHCHQKDHVLTGCSFHWEVEDLSVRRQPALRSRRQPGQCVGHQAASVYASCCHAPGLECKIKEHGISGPSEQVTVACEAGWTLTGCNVLPGASLTLGAYSVDNLCVARVHDTARADRTSGEATVAAAICCRSRPSAKASWVQ
notes: also called mPCSK9-8xHIS; mPCSK9; not shown: 8xHIS tag

Assays:
[1] = biological target: T1, human PCSK9 (proprotein convertase subtilisin/kexin type 9), wild type (human, UniProt Q8NBP7 31-692); assay: cell-based or functional assay
human PCSK9 D374Y mutant [2] = biological target: T2, human PCSK9 D374Y mutant (human, UniProt Q8NBP7 31-692, biotinylated (sites not given) in the ELISA formats); assay: cell-based or functional assay
furin (R&D Systems) = furin (R&D Systems) (UniProt P09958 108-715, limits assumed); assay: competition ELISA: 0.4 ug/mL 11F1 pre-incubated with soluble proprotein convertase (furin inhibitor present), then added to plate-captured biotinylated PCSK9; OD450
Sequence of furin (R&D Systems) (P09958 108-715 limits assumed): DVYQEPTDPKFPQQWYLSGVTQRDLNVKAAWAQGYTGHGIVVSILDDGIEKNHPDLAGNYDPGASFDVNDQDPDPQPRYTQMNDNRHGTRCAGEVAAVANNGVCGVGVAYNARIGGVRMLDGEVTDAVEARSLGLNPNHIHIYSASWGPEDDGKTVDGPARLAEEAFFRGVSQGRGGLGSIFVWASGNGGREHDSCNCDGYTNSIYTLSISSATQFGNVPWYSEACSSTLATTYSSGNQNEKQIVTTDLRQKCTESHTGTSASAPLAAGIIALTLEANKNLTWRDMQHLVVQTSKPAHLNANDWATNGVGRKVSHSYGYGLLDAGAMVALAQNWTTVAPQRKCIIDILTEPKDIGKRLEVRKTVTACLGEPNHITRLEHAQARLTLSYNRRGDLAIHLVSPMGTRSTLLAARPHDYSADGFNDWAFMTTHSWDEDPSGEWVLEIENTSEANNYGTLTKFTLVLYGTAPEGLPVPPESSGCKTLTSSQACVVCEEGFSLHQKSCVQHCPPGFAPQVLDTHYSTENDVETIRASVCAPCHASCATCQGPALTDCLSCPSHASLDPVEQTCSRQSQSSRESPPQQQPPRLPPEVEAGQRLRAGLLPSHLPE

human PCSK9 D374Y mutant [3] = biological target: T2, human PCSK9 D374Y mutant; assay: competition ELISA: biotinylated D374Y PCSK9 (20 ng/mL) pre-incubated with 11F1, binding to captured LDLR; average of 3
human PCSK9 D374Y mutant [4] = biological target: T2, human PCSK9 D374Y mutant; assay: blocking ELISA: biotinylated D374Y PCSK9 (20 ng/mL) pre-incubated with 11F1, added to plate-captured LDLR; blocked ligand LDLR; streptavidin-HRP, OD450
[5] = biological target: T1, human PCSK9 (proprotein convertase …); assay: competition ELISA: biotinylated WT PCSK9 (100 ng/mL) pre-incubated with 11F1, binding to captured LDLR
[6] = biological target: T1, human PCSK9 (proprotein convertase …); assay: competition ELISA: biotinylated WT PCSK9 (100 ng/mL) pre-incubated with 11F1, binding to captured LDLR; average of 3
[7] = biological target: T1, human PCSK9 (proprotein convertase …); assay: blocking ELISA: biotinylated WT PCSK9 (100 ng/mL) pre-incubated with 11F1, added to plate-captured LDLR; blocked ligand LDLR; streptavidin-HRP, OD450
human PCSK9 D374Y mutant [8] = biological target: T2, human PCSK9 D374Y mutant; assay: competition ELISA: biotinylated D374Y PCSK9 (20 ng/mL) pre-incubated with 11F1, binding to captured LDLR
[9] = biological target: B3; assay: KinExA solution equilibrium titration; title: 100pM 16F12 + (1pM ~ 10nM) mPCSK9
[10] = biological target: B3; assay: SPR (Biacore 2000), antibody amine-coupled on CM5 chip, PCSK9 injected, pH 7.4
31H4, anti-PCSK9 huIgG4 = biological target: T3, 31H4, anti-PCSK9 huIgG4; assay: KinExA; mPCSK9 is varied, 31H4 is fixed at 100 pM; free 31H4.1 measured
T3 construct: also called 31H4.1; 31H4 IgG4
T3 sequence (VL, as listed by the source, chain 2 of 2, other chains not shown): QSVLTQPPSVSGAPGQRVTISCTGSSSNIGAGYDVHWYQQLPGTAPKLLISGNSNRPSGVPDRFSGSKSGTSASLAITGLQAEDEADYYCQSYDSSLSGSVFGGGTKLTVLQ

16F12, anti-PCSK9 huIgG4 = biological target: B2; assay: KinExA; mPCSK9 is varied, 16F12 is fixed at 100 pM; free 16F12 measured
[11] = biological target: B3; assay: Biacore solution equilibrium assay: PCSK9 mixed with 21B12.1, free PCSK9 read on immobilised 21B12
[12] = biological target: B3; assay: SPR (Biacore 2000), antibody amine-coupled on CM5 chip, PCSK9 injected, pH 7.4; BIAcore (Table 7.1), not the assay of Table 8.2

B1: 11F1, anti-PCSK9 antibody (antibody, V domains shown)
VH: EVQLVESGGGLVQPGGSLRLSCAASGFTFSNYWMSWVRQAPGKGLEWVASIKQDGSEKYYVDSVKGRFAISRDNAKNSLFLQMNSLRAEDTAVYYCARDLVLMVYDIDYYYYGMDVWGQGTTVTVSS
VL: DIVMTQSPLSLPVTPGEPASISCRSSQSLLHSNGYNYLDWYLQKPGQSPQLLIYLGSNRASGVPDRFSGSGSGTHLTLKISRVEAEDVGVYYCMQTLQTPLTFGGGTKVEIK
notes: it was detected with anti-human Fc
With B1 the “EC50, LDL uptake in HepG2 cells (BODIPY-LDL)” value [1] was 124 nM, the “EC50, LDL uptake in HepG2 cells (BODIPY-LDL)” value (human PCSK9 D374Y mutant [2]) was 35.3 nM and the binding result (furin (R&D Systems)) was “no binding (tested: 20 ug/ml)”. The IC50 (human PCSK9 D374Y mutant [3]) was 9.1 nM, the “IC50 (read off the curve)” value (human PCSK9 D374Y mutant [4]) was roughly 10 nM and the IC50 [5] was 4.4 to 8.1 nM. The IC50 [6] was 5.9 nM, the “IC50 (read off the curve)” value [7] was roughly 5 nM and the IC50 (human PCSK9 D374Y mutant [8]) was 7.3 to 10.1 nM.

B2 showed a Kd [9] of 0.223 nM and a Kd [10] of 6.4 nM.

B3 was tested, and the “IC50 (read off the curve)” value (31H4, anti-PCSK9 huIgG4) was roughly 0.6 nM and the “IC50 (read off the curve)” value (16F12, anti-PCSK9 huIgG4) was roughly 0.4 nM.

B4: 21B12, anti-PCSK9 huIgG4 (antibody, V domains shown)
VH: QVQLVQSGAEVKKPGASVKVSCKASGYTLTSYGISWVRQAPGQGLEWMGWVSFYNGNTNYAQKLQGRGTMTTDPSTSTAYMELRSLRSDDTAVYYCARGYGMDVWGQGTTVTVSS
VL: QSALTQPASVSGSPGQSITISCTGTSSDVGGYNSVSWYQQHPGKAPKLMIYEVSNRPSGVSNRFSGSKSGNTASLTISGLQAEDEADYYCNSYTSTSMVFGGGTKLTVLQ
notes: also called 21B12.1; 21B12 IgG4
With B4 the Kd [11] was 17 nM and the Kd [12] was 460 nM.
